Measured values published in PMC12416549 (2024).

T1: TNFR1 (Homo sapiens, UniProt P19438)
T1 chain: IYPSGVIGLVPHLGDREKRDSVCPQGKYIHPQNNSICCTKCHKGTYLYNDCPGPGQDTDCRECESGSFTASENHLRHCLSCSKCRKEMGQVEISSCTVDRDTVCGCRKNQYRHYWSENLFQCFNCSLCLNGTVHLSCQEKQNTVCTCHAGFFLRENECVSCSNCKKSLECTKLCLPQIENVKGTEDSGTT


Target: T1, TNFR1
Assay: yeast display SC50

Row | Binder | apparent Kd (screen)
1 | E25I (designed binder) MTLQELLREEALRRAEAEAFRYALILLAEKFPEQKEYLLDLAEEIESQIRSLSGVDVEDVRKFLDKEWAWVKELLAEHPAELAEVEAARAARLAELRAEVEAKVAA | 869 pM
2 | R21I (designed binder) MTLQELLREEALRRAEAEAFIYALELLAEKFPEQKEYLLDLAEEIESQIRSLSGVDVEDVRKFLDKEWAWVKELLAEHPAELAEVEAARAARLAELRAEVEAKVAA | 490 pM
3 | E43T (designed binder) MTLQELLREEALRRAEAEAFRYALELLAEKFPEQKEYLLDLATEIESQIRSLSGVDVEDVRKFLDKEWAWVKELLAEHPAELAEVEAARAARLAELRAEVEAKVAA | 790 pM
4 | P32Q (designed binder) MTLQELLREEALRRAEAEAFRYALELLAEKFQEQKEYLLDLAEEIESQIRSLSGVDVEDVRKFLDKEWAWVKELLAEHPAELAEVEAARAARLAELRAEVEAKVAA | 593 pM
5 | E46Y (designed binder) MTLQELLREEALRRAEAEAFRYALELLAEKFPEQKEYLLDLAEEIYSQIRSLSGVDVEDVRKFLDKEWAWVKELLAEHPAELAEVEAARAARLAELRAEVEAKVAA | 539 pM
6 | K35S (designed binder) MTLQELLREEALRRAEAEAFRYALELLAEKFPEQSEYLLDLAEEIESQIRSLSGVDVEDVRKFLDKEWAWVKELLAEHPAELAEVEAARAARLAELRAEVEAKVAA | 653 pM
7 | S47G (designed binder) MTLQELLREEALRRAEAEAFRYALELLAEKFPEQKEYLLDLAEEIEGQIRSLSGVDVEDVRKFLDKEWAWVKELLAEHPAELAEVEAARAARLAELRAEVEAKVAA | 1270 pM
8 | T2A (designed binder) MALQELLREEALRRAEAEAFRYALELLAEKFPEQKEYLLDLAEEIESQIRSLSGVDVEDVRKFLDKEWAWVKELLAEHPAELAEVEAARAARLAELRAEVEAKVAA | 790 pM
9 | I49R (designed binder) MTLQELLREEALRRAEAEAFRYALELLAEKFPEQKEYLLDLAEEIESQRRSLSGVDVEDVRKFLDKEWAWVKELLAEHPAELAEVEAARAARLAELRAEVEAKVAA | 593 pM
10 | A11Q (designed binder) MTLQELLREEQLRRAEAEAFRYALELLAEKFPEQKEYLLDLAEEIESQIRSLSGVDVEDVRKFLDKEWAWVKELLAEHPAELAEVEAARAARLAELRAEVEAKVAA | 790 pM
11 | E36K (designed binder) MTLQELLREEALRRAEAEAFRYALELLAEKFPEQKKYLLDLAEEIESQIRSLSGVDVEDVRKFLDKEWAWVKELLAEHPAELAEVEAARAARLAELRAEVEAKVAA | 3990 pM
12 | S47E (designed binder) MTLQELLREEALRRAEAEAFRYALELLAEKFPEQKEYLLDLAEEIEEQIRSLSGVDVEDVRKFLDKEWAWVKELLAEHPAELAEVEAARAARLAELRAEVEAKVAA | 490 pM
13 | E33L (designed binder) MTLQELLREEALRRAEAEAFRYALELLAEKFPLQKEYLLDLAEEIESQIRSLSGVDVEDVRKFLDKEWAWVKELLAEHPAELAEVEAARAARLAELRAEVEAKVAA | 653 pM
14 | K30I (designed binder) MTLQELLREEALRRAEAEAFRYALELLAEIFPEQKEYLLDLAEEIESQIRSLSGVDVEDVRKFLDKEWAWVKELLAEHPAELAEVEAARAARLAELRAEVEAKVAA | 490 pM
15 | E58F (designed binder) MTLQELLREEALRRAEAEAFRYALELLAEKFPEQKEYLLDLAEEIESQIRSLSGVDVFDVRKFLDKEWAWVKELLAEHPAELAEVEAARAARLAELRAEVEAKVAA | 2730 pM

Second part, the binder after the results:

Row | apparent Kd (screen) | Binder
16 | 790 pM | V85A (designed binder) MTLQELLREEALRRAEAEAFRYALELLAEKFPEQKEYLLDLAEEIESQIRSLSGVDVEDVRKFLDKEWAWVKELLAEHPAELAEAEAARAARLAELRAEVEAKVAA
17 | 1400 pM | W68A (designed binder) MTLQELLREEALRRAEAEAFRYALELLAEKFPEQKEYLLDLAEEIESQIRSLSGVDVEDVRKFLDKEAAWVKELLAEHPAELAEVEAARAARLAELRAEVEAKVAA
18 | 956 pM | A102P (designed binder) MTLQELLREEALRRAEAEAFRYALELLAEKFPEQKEYLLDLAEEIESQIRSLSGVDVEDVRKFLDKEWAWVKELLAEHPAELAEVEAARAARLAELRAEVEPKVAA
19 | 869 pM | A80H (designed binder) MTLQELLREEALRRAEAEAFRYALELLAEKFPEQKEYLLDLAEEIESQIRSLSGVDVEDVRKFLDKEWAWVKELLAEHPHELAEVEAARAARLAELRAEVEAKVAA
20 | 593 pM | K62F (designed binder) MTLQELLREEALRRAEAEAFRYALELLAEKFPEQKEYLLDLAEEIESQIRSLSGVDVEDVRFFLDKEWAWVKELLAEHPAELAEVEAARAARLAELRAEVEAKVAA
21 | 956 pM | A94L (designed binder) MTLQELLREEALRRAEAEAFRYALELLAEKFPEQKEYLLDLAEEIESQIRSLSGVDVEDVRKFLDKEWAWVKELLAEHPAELAEVEAARAARLLELRAEVEAKVAA
22 | 24400 pM | R89P (designed binder) MTLQELLREEALRRAEAEAFRYALELLAEKFPEQKEYLLDLAEEIESQIRSLSGVDVEDVRKFLDKEWAWVKELLAEHPAELAEVEAAPAARLAELRAEVEAKVAA
23 | 1270 pM | V60H (designed binder) MTLQELLREEALRRAEAEAFRYALELLAEKFPEQKEYLLDLAEEIESQIRSLSGVDVEDHRKFLDKEWAWVKELLAEHPAELAEVEAARAARLAELRAEVEAKVAA
24 | 790 pM | R89A (designed binder) MTLQELLREEALRRAEAEAFRYALELLAEKFPEQKEYLLDLAEEIESQIRSLSGVDVEDVRKFLDKEWAWVKELLAEHPAELAEVEAAAAARLAELRAEVEAKVAA
25 | 869 pM | H78Q (designed binder) MTLQELLREEALRRAEAEAFRYALELLAEKFPEQKEYLLDLAEEIESQIRSLSGVDVEDVRKFLDKEWAWVKELLAEQPAELAEVEAARAARLAELRAEVEAKVAA
26 | 13800 pM | E67G (designed binder) MTLQELLREEALRRAEAEAFRYALELLAEKFPEQKEYLLDLAEEIESQIRSLSGVDVEDVRKFLDKGWAWVKELLAEHPAELAEVEAARAARLAELRAEVEAKVAA
